# According to patent US20240132624A1 (Ablynx, published 2024):
# Columns and labels:
# human FcRn/b2M [1] = target: T1, human FcRn/b2M (human, UniProt P61769 21-119, biotinylated); experiment: SPR pH 6.0
# T1 construct: bought recombinant biotinylated protein (ACRO FCM-H82W4 or Immunitrack ITF01); also called hFcRn; hFcRn/hb2M
# Protocol: (§1) All kinetic measurements have been performed on ProteOn XPR36 (BioRad Laboratories, Inc.), MASS-2 (Sierra sensors, Gmbh) or SPR-32 (Bruker Corporation). […] The phytip purified periplasmic extracts were diluted 1:10 in running buffer (CPA+150 mM NaCl+0.005% Tw20 at pH 5.5, pH 6.0 or pH 7.4) and injected over the ligand surfaces (association: 120 s at 45 μL/min; dissociation: 600s-3600 s at 45 μL/min). Experiments were carried out at 25° C.
# cyno FcRn/b2M [2] = target: T2, cyno FcRn/b2M (cyno, UniProt Q8SPV9 24-297; Q8SPW0 21-119, biotinylated); experiment: SPR pH 6.0;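 note: surface plasmon resonance kinetics at 25 °C, diluted periplasmic extracts injected over immobilized ligand surfaces, 120 s association then 600–3600 s dissociation, running buffer containing 150 mM NaCl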
# T2 construct: bought recombinant biotinylated protein (Immunitrack ITF05 or ACRO FCM-C82W5); also called cFcRn; cFcRn/cb2M
# Protocol: as §1
# human FcRn/b2M [3] = target: T1, human FcRn/b2M; experiment: SPR pH 7.4;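 note: surface plasmon resonance kinetics, periplasmic extracts diluted 1:10 flowed over immobilized target at 25 °C, 120 s association then 600–3600 s dissociation, buffer with 150 mM NaCl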
# Protocol: as §1
# cyno FcRn/b2M [4] = target: T2, cyno FcRn/b2M; experiment: SPR pH 7.4;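 note: surface plasmon resonance kinetics, periplasmic extracts diluted 1:10 flowed over immobilized target at 25 °C, 120 s association then 600–3600 s dissociation, buffer with 150 mM NaCl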
# Protocol: as §1
# human FcRn/b2M [5] = target: T1, human FcRn/b2M; experiment: SPR off-rate; pH 7.4 vs pH 6.0;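 note: surface plasmon resonance with diluted periplasmic extracts flowed over ligand surfaces, 120 s association and 600–3600 s dissociation at 25 °C, running buffer containing 150 mM NaCl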
# Protocol: as §1
# cyno FcRn/b2M [6] = target: T2, cyno FcRn/b2M; experiment: SPR off-rate; pH 7.4 vs pH 6.0;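 note: surface plasmon resonance with diluted periplasmic extracts flowed over ligand surfaces, 120 s association and 600–3600 s dissociation at 25 °C, running buffer containing 150 mM NaCl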
# Protocol: as §1
# human FcRn/b2M [7] = target: T1, human FcRn/b2M; experiment: SPR pH 6.0; remark: listed apart in the source
# T2 sequence (Q8SPV9 24-297 limits assumed, chain 1 of 2): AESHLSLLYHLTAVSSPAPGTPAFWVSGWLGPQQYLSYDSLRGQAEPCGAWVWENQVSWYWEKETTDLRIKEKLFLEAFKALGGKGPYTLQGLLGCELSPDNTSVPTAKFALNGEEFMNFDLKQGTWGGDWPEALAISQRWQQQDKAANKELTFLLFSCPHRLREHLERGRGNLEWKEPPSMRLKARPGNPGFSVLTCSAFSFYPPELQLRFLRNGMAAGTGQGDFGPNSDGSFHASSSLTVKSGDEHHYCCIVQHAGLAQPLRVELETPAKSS
# T2 sequence (Q8SPW0 21-119 limits assumed, chain 2 of 2): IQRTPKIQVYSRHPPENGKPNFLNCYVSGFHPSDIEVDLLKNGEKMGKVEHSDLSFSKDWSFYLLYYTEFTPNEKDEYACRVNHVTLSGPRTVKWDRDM
koff (human FcRn/b2M [1]) [s⁻¹],koff (cyno FcRn/b2M [2]) [s⁻¹],koff (human FcRn/b2M [3]) [s⁻¹],koff (cyno FcRn/b2M [4]) [s⁻¹],kd ratio pH 7.4/6.0 (human FcRn/b2M [5]),kd ratio pH 7.4/6.0 (cyno FcRn/b2M [6]),koff (human FcRn/b2M [7]) [s⁻¹],Binder
0.009,0.0059,0.5,0.5,56,85,,"T0263018B11 W100cQ (VHH, name in Kabat numbering, FLAG3-His6 tagged) VHH: EVQLVESGGGVVQPGGSLRLSCAASGFTFSSYAMYWVRQAPGKGLEWVSAISSGGGSTDYADSVKGRFTISRDNSKNTLYLQMNSLRPEDTALYYCAADTLYTSLTQYSYWGQGTLVTVSS"
0.0043,0.0035,0.14,0.16,33,46,,"T0263018B11 Y35F (VHH, name in Kabat numbering, FLAG3-His6 tagged) VHH: EVQLVESGGGVVQPGGSLRLSCAASGFTFSSYAMFWVRQAPGKGLEWVSAISSGGGSTDYADSVKGRFTISRDNSKNTLYLQMNSLRPEDTALYYCAADTLYTSLTWYSYWGQGTLVTVSS"
0.0023,0.0017,0.06,0.057,26,34,,"T0263018B11 Y100dF (VHH, name in Kabat numbering, FLAG3-His6 tagged) VHH: EVQLVESGGGVVQPGGSLRLSCAASGFTFSSYAMYWVRQAPGKGLEWVSAISSGGGSTDYADSVKGRFTISRDNSKNTLYLQMNSLRPEDTALYYCAADTLYTSLTWFSYWGQGTLVTVSS"
,,,,,,0.0056,"T026301052 (VHH, name in Kabat numbering, tagless) VHH: EVQLVESGGGVVQPGGSLRLSCAASTFTFSEYDMYWVRQAPGKGLEWVSAISSGGGSTDYADSVKGRFTISRDNSKNTLYLQMNSLRPEDTALYYCAADTLYTSLTWYSYWGQGTLVTVSS"
0.0023,0.0013,0.14,0.099,60,75,,"T0263018B11 Y32Q (VHH, name in Kabat numbering, FLAG3-His6 tagged) VHH: EVQLVESGGGVVQPGGSLRLSCAASGFTFSSQAMYWVRQAPGKGLEWVSAISSGGGSTDYADSVKGRFTISRDNSKNTLYLQMNSLRPEDTALYYCAADTLYTSLTWYSYWGQGTLVTVSS"
,,,,,,0.0061,"T026301067 (VHH, name in Kabat numbering, tagless) VHH: EVQLVESGGGVVQPGGSLRLSCAASTFTFSSYDMYWVRQAPGKGLEWVSAISQGGGSTDYADSVKGRFTISRDNSKNTLYLQMNSLRPEDTALYYCAADTLYTSLTKYSYWGQGTLVTVSS"
0.0017,0.0012,0.065,0.06,38,50,,"T0263018B11 Y102T (VHH, name in Kabat numbering, FLAG3-His6 tagged) VHH: EVQLVESGGGVVQPGGSLRLSCAASGFTFSSYAMYWVRQAPGKGLEWVSAISSGGGSTDYADSVKGRFTISRDNSKNTLYLQMNSLRPEDTALYYCAADTLYTSLTWYSTWGQGTLVTVSS"
0.0082,0.0024,0.5,0.18,61,76,,"T0263018B11 W100cV (VHH, name in Kabat numbering, FLAG3-His6 tagged) VHH: EVQLVESGGGVVQPGGSLRLSCAASGFTFSSYAMYWVRQAPGKGLEWVSAISSGGGSTDYADSVKGRFTISRDNSKNTLYLQMNSLRPEDTALYYCAADTLYTSLTVYSYWGQGTLVTVSS"
,,,,,,0.034,"T026301060 (VHH, name in Kabat numbering, tagless) VHH: EVQLVESGGGVVQPGGSLRLSCAASGFTFSEYAMYWVRQAPGKGLEWVSAISSGGGSTDYADSVKGRFTISRDNSKNTLYLQMNSLRPEDTALYYCAADTLYTDLTSYSYWGQGTLVTVSS"
,,,,,,0.013,"T026301074 (VHH, name in Kabat numbering, tagless) VHH: EVQLVESGGGVVQPGGSLRLSCAASTFTFSEYAMYWVRQAPGKGLEWVSAISSGGGSTDYADSVKGRFTISRDNSKNTLYLQMNSLRPEDTALYYCAADTLYTDLTWYSYWGQGTLVTVSS"
,,,,,,0.041,"T026301054 (VHH, name in Kabat numbering, tagless) VHH: EVQLVESGGGVVQPGGSLRLSCAASTFTFSEYAMYWVRQAPGKGLEWVSAISQGGGSTDYADSVKGRFTISRDNSKNTLYLQMNSLRPEDTALYYCAADTLYTDLTWYSYWGQGTLVTVSS"
0.0054,0.0028,0.19,0.14,35,52,,"T0263018B11 Y32S (VHH, name in Kabat numbering, FLAG3-His6 tagged) VHH: EVQLVESGGGVVQPGGSLRLSCAASGFTFSSSAMYWVRQAPGKGLEWVSAISSGGGSTDYADSVKGRFTISRDNSKNTLYLQMNSLRPEDTALYYCAADTLYTSLTWYSYWGQGTLVTVSS"
0.0021,0.0015,0.09,0.075,43,50,,"T0263018B11 W100cY (VHH, name in Kabat numbering, FLAG3-His6 tagged) VHH: EVQLVESGGGVVQPGGSLRLSCAASGFTFSSYAMYWVRQAPGKGLEWVSAISSGGGSTDYADSVKGRFTISRDNSKNTLYLQMNSLRPEDTALYYCAADTLYTSLTYYSYWGQGTLVTVSS"
,,,,,,0.0095,"T026301078 (VHH, name in Kabat numbering, tagless) VHH: EVQLVESGGGVVQPGGSLRLSCAASGFTFSEYDMYWVRQAPGKGLEWVSAISQGGGSTDYADSVKGRFTISRDNSKNTLYLQMNSLRPEDTALYYCAADTLYTDLTWYSYWGQGTLVTVSS"
0.00053,0.00026,0.04,0.022,75,84,,"T0263018B11 Y98F (VHH, name in Kabat numbering, FLAG3-His6 tagged) VHH: EVQLVESGGGVVQPGGSLRLSCAASGFTFSSYAMYWVRQAPGKGLEWVSAISSGGGSTDYADSVKGRFTISRDNSKNTLYLQMNSLRPEDTALYYCAADTLFTSLTWYSYWGQGTLVTVSS"
,,,,,,0.029,"T026301050 (VHH, name in Kabat numbering, tagless) VHH: EVQLVESGGGVVQPGGSLRLSCAASTFTFSSYAMYWVRQAPGKGLEWVSAISQGGGSTDYADSVKGRFTISRDNSKNTLYLQMNSLRPEDTALYYCAADTLYTDLTWYSYWGQGTLVTVSS"
,,,,,,0.012,"T026301051 (VHH, name in Kabat numbering, tagless) VHH: EVQLVESGGGVVQPGGSLRLSCAASGFTFSSYDMYWVRQAPGKGLEWVSAISSGGGSTDYADSVKGRFTISRDNSKNTLYLQMNSLRPEDTALYYCAADTLYTDLTWYSYWGQGTLVTVSS"
0.00066,0.00042,0.026,0.019,39,46,,"T0263018B11 Y32F (VHH, name in Kabat numbering, FLAG3-His6 tagged) VHH: EVQLVESGGGVVQPGGSLRLSCAASGFTFSSFAMYWVRQAPGKGLEWVSAISSGGGSTDYADSVKGRFTISRDNSKNTLYLQMNSLRPEDTALYYCAADTLYTSLTWYSYWGQGTLVTVSS"
0.013,0.0084,0.61,0.39,49,46,,"T0263018B11 Y32L (VHH, name in Kabat numbering, FLAG3-His6 tagged) VHH: EVQLVESGGGVVQPGGSLRLSCAASGFTFSSLAMYWVRQAPGKGLEWVSAISSGGGSTDYADSVKGRFTISRDNSKNTLYLQMNSLRPEDTALYYCAADTLYTSLTWYSYWGQGTLVTVSS"
,,,,,,0.015,"T026301072 (VHH, name in Kabat numbering, tagless) VHH: EVQLVESGGGVVQPGGSLRLSCAASGFTFSSYDMYWVRQAPGKGLEWVSAISQGGGSTDYADSVKGRFTISRDNSKNTLYLQMNSLRPEDTALYYCAADTLYTDLTSYSYWGQGTLVTVSS"
,,,,,,0.0088,"T026301081 (VHH, name in Kabat numbering, tagless) VHH: EVQLVESGGGVVQPGGSLRLSCAASTFTFSSYAMYWVRQAPGKGLEWVSAISSGGGSTDYADSVKGRFTISRDNSKNTLYLQMNSLRPEDTALYYCAADTLYTSLTSYSYWGQGTLVTVSS"
0.004,0.0022,0.048,0.13,12,60,,"T0263018B11 Y32V (VHH, name in Kabat numbering, FLAG3-His6 tagged) VHH: EVQLVESGGGVVQPGGSLRLSCAASGFTFSSVAMYWVRQAPGKGLEWVSAISSGGGSTDYADSVKGRFTISRDNSKNTLYLQMNSLRPEDTALYYCAADTLYTSLTWYSYWGQGTLVTVSS"
,,,,,,0.049,"T026301071 (VHH, name in Kabat numbering, tagless) VHH: EVQLVESGGGVVQPGGSLRLSCAASTFTFSEYAMYWVRQAPGKGLEWVSAISSGGGSTDYADSVKGRFTISRDNSKNTLYLQMNSLRPEDTALYYCAADTLYTDLTSYSYWGQGTLVTVSS"
,,,,,,0.039,"T026301059 (VHH, name in Kabat numbering, tagless) VHH: EVQLVESGGGVVQPGGSLRLSCAASGFTFSEYDMYWVRQAPGKGLEWVSAISQGGGSTDYADSVKGRFTISRDNSKNTLYLQMNSLRPEDTALYYCAADTLYTDLTSYSYWGQGTLVTVSS"
0.0045,0.0035,0.19,0.21,42,60,,"T0263018B11 Y32T (VHH, name in Kabat numbering, FLAG3-His6 tagged) VHH: EVQLVESGGGVVQPGGSLRLSCAASGFTFSSTAMYWVRQAPGKGLEWVSAISSGGGSTDYADSVKGRFTISRDNSKNTLYLQMNSLRPEDTALYYCAADTLYTSLTWYSYWGQGTLVTVSS"
